Assay: soluble fraction after stress (log2 fold change); higher = more stays soluble; pooled small domains, quantitative proteomics
Settings: stress: 75 degC
In the case of “HMAKITERVMGSAALRDYDPNYLPDEVLKALDGYPPFDGYVYKDGILYARVKIGDTFFIIPPI”, the “soluble fraction (log2)” value is reported as -2.53. With “HMAKKDVESTLGGRLRVARVRAGLTQVELARMLGMNSVSLSNVEGGRRGLSMKQLVRVAKILEVPVAYLLG” the “soluble fraction (log2)” value was -2.36. For “HMAKMPSIIIMKDGVIRTSELEQIERDENWLNEEMKKQHIDNPEDVFLAEFWDGKVNFILQDGKIK”, the “soluble fraction (log2)” value was -0.0894. In the case of “HMAKNDSGLNNHTFNTIRDALQKALTDGPQEAKKLTENLPFPADKIITVIRYLADHDEHFSLEDGIISLT”, the “soluble fraction (log2)” value is reported as 0.609. With “HMAKNIEVPNLVGSTISVARNDLKQLGLHVIVRDSVWSEDKKIDTILEQFPEPGKKLKPEGVVQVVVSI” the “soluble fraction (log2)” value was -0.909. With “HMAKNSVLTIELWNSTAFKWRKDTEPYSESMSVDFNRSVRLTDGISIMFSKFGFVPGIQYLIPLQT” the “soluble fraction (log2)” value was -0.534. For “HMAKQQTTTTAHVVTTGETLYSIAQKNGISVEELKKSNNITSDKLRPGQTLHITKVSKTSSTAK”, the “soluble fraction (log2)” value was 0.87. With “HMAKRPRFEDVIKEINTEIQKRKGKWNLTILSWMDFDDVAQVIRIHIYRKWHLYDPSKPLGPWLNR” the “soluble fraction (log2)” value was -0.339. With “HMAKSETAKIKATPYGWLRVRDTPSLNGAEIARVNSGDEYKVLEKETGWIKIKVSDTVEGWVSDAYIELS” the “soluble fraction (log2)” value was -0.21. In the case of “HMAKSKYETHVLPNLDKIIKWAKAGATAKEIAANLHIAYSTFRKYLDEGQEGDERYAALSAAFAQA”, the “soluble fraction (log2)” value is reported as -0.0762. In the case of “HMALDLNEDEKLLVELIEKAGGTAGLGELKEASGLSGKKWDKTTKNLSKEGLIKVEKNESGLWVHLT”, the “soluble fraction (log2)” value is reported as 0.0861. In the case of “HMALDLPVKRVKGKEYYYYKVKKGESLYGISKHLGLPLDSIVKSNPSVADGVRKGDMLLFPLEEYT”, the “soluble fraction (log2)” value is reported as -0.702. For “HMALKQADFDFIRQMIQQRAAIVLDDNKHYFVESRLGPVVEETGSKSLDQLIDQLRSSSNSLLQQKVTEAI”, the “soluble fraction (log2)” value was -0.372. In the case of “HMALLSDEERIATVFAARLGGYSHQEIYKLLQDRFGPSLPAAYSEKSVLTDLQTALSQVPSL”, the “soluble fraction (log2)” value is reported as -0.814. With “HMALPEHIEPFLRGLGQALAEGDSYEDVQERLLRAYPYLDSTEFQTALARVIFISDLWGRLN” the “soluble fraction (log2)” value was -1.85. In the case of “HMALPPPELRGATGEAVTALRPAGIALIQGKRYDVLAEGGEWIAAGAAVRVRDIRNGHLIVSDA”, the “soluble fraction (log2)” value is reported as -0.268. In the case of “HMALRFMAYGRINGTNVHFRTGASASTASLGRYSRGTEFGVYDKIGGWYRVRLLSTGQEGYVYSRYLTLTG”, the “soluble fraction (log2)” value is reported as -2.53. For “HMALSGTVQNFAGGIMILIFRPFKTGDYIEALGYFGKVSEVNIVSTKLRTFDNKTIILPNGALSNGNIQNY”, the “soluble fraction (log2)” value was -0.772. For “HMALSSQQIKDMQSWYGTKADGIWGSKSTTAAGGRDAGAAYSLYSSNKGRYSSYTDYMSYGGG”, the “soluble fraction (log2)” value was 0.341. In the case of “HMALSTRERMSFVLEVLKEKEFIPFVDLFSPEEGRAGVVVTFLALMELMKDSLIEIVQTKNFGEIHVRARL”, the “soluble fraction (log2)” value is reported as -0.316. In the case of “HMALTQEQLGQRLQDARKSVALTQQEVAEDLGLSRESLAQIEAGSRSVNSLEIVRLARLYGRSLSSILLE”, the “soluble fraction (log2)” value is reported as -0.893. With “HMALYSEQVSEIEKALMSLPPKYQLVMLLLYAEDLKYEQIAEILDEPIGTVKTKIHRARKILKERF” the “soluble fraction (log2)” value was -0.147. With “HMAMDSGELEAIVDRLISEHPDDWAALTAGDDRERKKKSGFFVGEVMKATRGQADGRAVIELLASRSA” the “soluble fraction (log2)” value was -0.0771. With “HMAMDYTVVHSDRRTIAIQIQRDGRVVVRAPYAATAEDIRRVVDSHRDWVEKTVRRQQEQLAAS” the “soluble fraction (log2)” value was -0.985. In the case of “HMAMNITQRHQEILAVIKQEKHITVSEISKLLGVSEVTIRKDFNYLEEKNLIYRHHGGASLNN”, the “soluble fraction (log2)” value is reported as -2.78. In the case of “HMAMPQPVARALHRLGQDISAARRMRRLSQEDLAQRIGTSLSTVRRMEDGYPGTALHTFLRALHML”, the “soluble fraction (log2)” value is reported as -0.552. In the case of “HMAMSDFDALSNRISTLSQGRASAVRMKDGIVSLVLDIGGLSAEERKAMTAAIEGEGRGYPSVTQVRILET”, the “soluble fraction (log2)” value is reported as -0.15. In the case of “HMANAGKFDSDMGEKINFPGNRVSLTPSELEAARELAAIMGDRFFSQLIPTTSKVTVTEMLQSLK”, the “soluble fraction (log2)” value is reported as 0.745. In the case of “HMANGTVKWFNTTKGFGFIAPETGGKDVFVHISAVERSGLTGLADDQKVTFDVEAGRDGRESAVNLAL”, the “soluble fraction (log2)” value is reported as 0.0695. In the case of “HMANKTVPNVSGKTVAEARAIIENQSLQVGEEKEEYSDSVAEGYIIRTNPTAGSQKKEQSKIDLVVSKG”, the “soluble fraction (log2)” value is reported as 0.128. In the case of “HMANLDSLIKKVGQYAKDKQSISVDGIKKDLSIDKDMVKEALAELLKIGVVDKPDEAGQYKVIM”, the “soluble fraction (log2)” value is reported as 0.51. In the case of “HMANPMFAEIKKVQKQLNEMGYQAGPADGLWGNKTENAVKLLLSDNNLKWDGTFDQNEIKIIEEIFLSND”, the “soluble fraction (log2)” value is reported as -0.241. For “HMANPRLEYFLSNITPDWNEFSPELKNQLLIENADPYKLEQYILQVSPDMYIEEQNAPGTVRQMAGDITG”, the “soluble fraction (log2)” value was 0.137. For “HMANSANARKSLVSKLIAGGKIASQSDLVKALKKQGIVVTQGTASRDLEDIGAIRVRNSEGEIVYALT”, the “soluble fraction (log2)” value was 0.0457. With “HMANSDEEVLNKISTKAPTFNELINKIKEFDDTKEINDIWLDVYRYYITDEEYKEIAKKVITGLTYTNQ” the “soluble fraction (log2)” value was -0.386. In the case of “HMANSLLVTAQAGGQKLFNFLKRSLHAENNEIHRWIRTGQVRINKKRTKAFDIVHENDEIRIPPFALNR”, the “soluble fraction (log2)” value is reported as -0.444. In the case of “HMANSREIPKLAGIEQEEAVKQLLDLDLKPVIEEITDDDTDAGDVVRTDPAAGEHVAVDTEITVFISIG”, the “soluble fraction (log2)” value is reported as -0.987. For “HMANVQLAKNLKTLRKKYNYTQQDVSTFLNITRQAYSHYEQALREPDLNTLVHLSRFYQVTLDELI”, the “soluble fraction (log2)” value was -4.33. For “HMANYHDIAADLRSKINHGFYEEEKKLPKQSELAADYQTSRVTIQKALNILQMEGIIYGKKGTGTFIRDSY”, the “soluble fraction (log2)” value was -0.32. In the case of “HMANYTVNAYNNGGTGGSVNMRSGPSTNDGIVVRVPHGATVTGTKSGTWSYMTYNTYTGYMMSVYLDEQS”, the “soluble fraction (log2)” value is reported as -1.57. In the case of “HMAPAPYLVKVTANKLNIRSGPGTNYKIQGAITDKGTYTIVDTQGRWGKLKSGAGWIYLNYTKK”, the “soluble fraction (log2)” value is reported as -1.98. In the case of “HMAPASADQLIDQLNEKVKAKDDKGVAALLTAAQTKMAELAQKDPKEAQAYVAKLQQWMQSNSENIKAALK”, the “soluble fraction (log2)” value is reported as 0.439. For “HMAPAYELTEEETKIIEILKANENIDLNELKSQAALSGKKWDKSMKNLAKYNLTKVTVDGDAKTVAYLA”, the “soluble fraction (log2)” value was 0.164. With “HMAPELSGEKLWDAQDVAMFLRVKPTTVWSYVSRDGFPAPVSQAGRAGMWSEPLVVQWYLSRPG” the “soluble fraction (log2)” value was 0.154. With “HMAPEPFILSVDADGKYYIDDLEKTKQEILIYATALYQEKPTTDFLVRGDKSAAYNDVLQAMVVLKE” the “soluble fraction (log2)” value was 0.325. With “HMAPETALQILEQIQINPKVTMTDLANLTGYSRRWVAQTMKQLQELNVIKRVGSTKTGYWEIIA” the “soluble fraction (log2)” value was -0.576. In the case of “HMAPGSKAEIPEDLMKVINKDPKMKAFVATLNKANIMAISFRLSTAKKPETRERRFNLILETLKRGEKF”, the “soluble fraction (log2)” value is reported as -3.16. In the case of “HMAPKVTLNETETAIFEKMQQEKQLLLSELRTHFDISNKLWDTSIKTLTKNQLLTVSKEADLLWIKL”, the “soluble fraction (log2)” value is reported as -1.34. In the case of “HMAPLAVIFPEPWRGMIAPEKLEGLTQALSLNPRPGYQHDPTRRYGVSLDGLDVRFTIDGDTLTVVEVVT”, the “soluble fraction (log2)” value is reported as -1.64. For “HMAPNKLQQQEVWTKALPLLQQMIMTIRQIDAAGGDSSPERELLEETAARFDETLDVERFLP”, the “soluble fraction (log2)” value was -0.339. With “HMAPPPLAGAREALREQIRRGSLSARRGFDAYADALGLPAGTRGAHPIFAALQRLDYPQALRLLDQEPT” the “soluble fraction (log2)” value was -0.0614. With “HMAPQVKIPNLVDVSQRQAEAILNSYGLKVGHLIYKPDLAKDAVLGFMFNGRSLKAGDELAKGSSIDLILG” the “soluble fraction (log2)” value was -0.277. With “HMAPRDKADKYVAAGIAEELVPILQKVGYYLVTDLKDVKAQKIQQQIGEIIKKYKLDIEKPSVQDIEGWN” the “soluble fraction (log2)” value was -0.192. For “HMAQDIEQLEKAVSFYTRMDPAAAALSITNLDQKTAVNILMRMKDKQASAVLESMTAERSSELIDSIARK”, the “soluble fraction (log2)” value was 0.0292. For “HMAQELPYEKVTMNGKMFYVYHVKAGEGLYLISRTFSVNADEILKFNPSIENGLKSGQVLYIPIK”, the “soluble fraction (log2)” value was -1.23. In the case of “HMAQISDESALYDLVKSVLDANPQSIADYKAGRDRALGFLMGQAMKLSKGKANPPVINKILKEMLDK”, the “soluble fraction (log2)” value is reported as 0.161. In the case of “HMAQKQLYIAGTDYTKNSTSQLVLAYFPAKPSSIKIFFDGIYQNKDKWSLFGKTIIFGLPISSNAVEVHYE”, the “soluble fraction (log2)” value is reported as -4.34. With “HMAQLPADLSKVKSSQISDQQLTQIAQQAKNSGQSEQAVLQELKQRGLPDTEIQALGARISGLMQ” the “soluble fraction (log2)” value was 0.211. With “HMAQLVVTVDKLNKRTAIPVTLSDKSSNDSVVEKGFRFEGFPFVNTATNGKKWYKDREGFFYWAGGLMEEA” the “soluble fraction (log2)” value was 0.0903. For “HMAQMDDPEMVLHIYNKMIQQRLFDTAVGYSYLKDLQEYLQSIPFIRKEDIFPIPVQHPQVEESLRKAK”, the “soluble fraction (log2)” value was -0.689. With “HMAQTSAELIIEYLKRNDGFMELTDKSPADEIYETFGISKKNFKMAVGSLYKNRVIEIGQNGIRLVE” the “soluble fraction (log2)” value was -0.426. For “HMAQTTKWREIHKVKRKETIFGIARDNGLTVDELIEANPEMTKPGYELKKGDFIYIPFPSKNIDTNAGTQT”, the “soluble fraction (log2)” value was 0.498. With “HMARAESYGDIARLEQLLDEHANIAALDPGKLPAVRQQIWTLMRAARMDHDLGLAERPEDDSFDDMLLHV” the “soluble fraction (log2)” value was 0.208. For “HMARAPIYPDGLTQREVEVLSLVAAGKTDREIAEELFIALRTVTTHVGNILNKIGAANRTEAAGYATRQGL”, the “soluble fraction (log2)” value was -1.7. For “HMARAVSPLEAIPGVGPRRRQQLLKQLGGMQEVARAGVEDLSRVPGISRALAQQIYDAFHGD”, the “soluble fraction (log2)” value was -0.287. In the case of “HMARDPWDVLGVAKTATNDEIKRAFKRQAMMTHPDKQGGSEERFKEVNEAYSHIKDEQSRAKYQNSQ”, the “soluble fraction (log2)” value is reported as 0.158. With “HMARDSYNGVQRTISTLLGQGNYDRAYDVAVGARGQMSKQQWSDVAKRIYEVSGIKIDDSVKY” the “soluble fraction (log2)” value was -0.113. For “HMARRSRADAVRNREALIDAAKAAFTEAGPDVSLEEIARRAGVGIGTLYRHFPTRDAVIEAVYR”, the “soluble fraction (log2)” value was -0.185. In the case of “HMARRTPPPTVSELNALLRVAAPHIQRVILLGIYTGARIGPSELFSLKWDDVDLTRGVIGIRL”, the “soluble fraction (log2)” value is reported as -0.0659. For “HMARTDVKLREVAQELLRMGLLEESLRPHLYRTALASMERLNATLEPLDLIARADEIRGLVFLAVRH”, the “soluble fraction (log2)” value was -2.73.

— the domain aggregation screens of Martell et al. (2025)
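Further: 20 min heating vs room temperature control held 20 min.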
